# Molecular target: His6-Phox2a (1-149) (Mus musculus, UniProt Q62066 Q62066:1-149)
# Assay: footprint; DNase I footprint
# Conditions: tags: N-terminal His6, pET15b, E. coli BL21(DE3); label: 32P
# His6-Phox2a (1-149), sequence (Q62066 1-149, one chain of several): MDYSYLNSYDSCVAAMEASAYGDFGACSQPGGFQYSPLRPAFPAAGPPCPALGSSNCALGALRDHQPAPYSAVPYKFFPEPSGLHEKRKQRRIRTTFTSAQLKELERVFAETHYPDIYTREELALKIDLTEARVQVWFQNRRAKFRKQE
binder,measurement,value
PBS3 (dsDNA) DNA 1: GAGGGAAAATTGGATTCCCCG DNA 2: CGGGGAATCCAATTTTCCCTC,binding result,binds

# Reference: patent US20040024191, “Multimerized DBH enhancer domains” (published 2004)
